Laboratory results taken from the nanobody polyreactivity screen of Harvey et al. (2022).

Experiment: yeast display, Sf9 membrane polyspecificity reagent, FACS + sequencing; frameworks hold sequencing errors
Summary of the method: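 Sorting gates, low and high (top ~1%), were placed on anti-HA fluorescence to track expression and on streptavidin fluorescence to track reagent binding. A clone's polyreactivity label is taken from the gate it came out of. The reagent was 10% biotinylated, detergent-solubilized Sf9 membrane, applied for 1 hour at 4 °C to galactose-induced yeast display cells.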
With “QVQLVESGGGLVQAGGSLRLSCAASGSIYSNAMGWYRPAPGKERELVAAISGSGSTTYYADSVKGRFTISRDNAKNTVYLQMNSLKPEDTAVYYCARGVYGRGRTERYYWGQGTQVIVSS” the “polyreactivity (PSR sort gate)” value was “high polyreactivity”. In the case of “QVQLVESGGGLVQAGGILRLSCAASGLIFNYYAMGWYRQAPGKERELVADITRGGSTNYADSVKGRFTISRDNANFTVYVQMNSMKPEDSAVYYCAARVRGWWYRYDYWGHGTQVTVSS”, the “polyreactivity (PSR sort gate)” value is reported as “high polyreactivity”. For “QVQLVETGGGLVQAGGSLRLSCAASGITITVYAMGWYRQAPGKERELVAAINSGSSTNYADSVKGRFTISRDNAKNTVYLQMNSLKTEVTAVYYCDASYRTLPDKKRYCYWGQGTQVTVSS”, the “polyreactivity (PSR sort gate)” value was “high polyreactivity”. For “QVQLVESGGCLVQAGGSLRLSCAASGRTFIGYAMGWYRQAPGKERELVAAISSTGGSTYYADSVKGRFTISRDNAKNTVYLQMNSLKPEDTAVYYCATDAARPPRTPDISDVSNFDYWGQGTQVTVSS”, the “polyreactivity (PSR sort gate)” value was “low polyreactivity”. For “QVQLVESGGGLVQAGGSLRLSCAASGSILWQYAMGWYRQAPGKERELVAAISTGGSTYYAESVKGRFTISRDNAKNTVYLQMNSLKPEDTAVYYCAAYVDYSVYFGGGYWGQGTQVTVSS”, the “polyreactivity (PSR sort gate)” value was “low polyreactivity”. In the case of “QVKLVESGGGLVQAGGSLRLSCAESGRIFHHYAMGWYRQAPGKERELVAAITGGGSTYYADSVKVRFTISRYNAKITVYLQMNSLKPEDTAVYYCAAPPFGYYEVGYDSWGQGSQVTVSS”, the “polyreactivity (PSR sort gate)” value is reported as “low polyreactivity”. With “QVQLVESGGGLVQAGGSLRLSCAASGRPFWQYAMGWKRQGPGKERELVAAITSSGGSTYDADSVKGRITISRDNAKNTVYLQMNCLKPEDTAVYYCADDTRYYRYYYWGQGTQVTVSS” the “polyreactivity (PSR sort gate)” value was “high polyreactivity”. With “QVQLVESGGGLVQAGGSLRLSCAASGSTFYFNTMGWYRQAPGKERELVAAIRRSSGSTYYADSVKGRFTISRDNAKNTVYLQMNSLKPEDTAVYYCAADNAVTRYGRIDRDYWGQGTQVTVSS” the “polyreactivity (PSR sort gate)” value was “low polyreactivity”. In the case of “QVQLVESGGGLVQAGGSLRLSCAASGRIFWTYAMGWYRHAPGKERELVAVISIGGTTYYADTVKGRFTISRDNAKNTVYLQMNSLKPEDTAVYYSAAPPSNATGFLSYDYWGQGTQVTVSS”, the “polyreactivity (PSR sort gate)” value is reported as “low polyreactivity”. For “QVQLVESGGGLVQAGGSLRLSCAASGITFTRNVMGWYRQAPGKERELVAAISGSGGSTYYADSVKGRFTISRDNEKNTVYLQMNSLKTEDTAVYYCAARSRGGRRYDYWGQGTQVTVSS”, the “polyreactivity (PSR sort gate)” value was “high polyreactivity”. With “QVQLVESGGGLVQAGGSLRLSCAASGSTFFRYAMGWYRQAPGKERELVAAISWSGGTTYYADSVKGRFSISRDNAKNTVYLQMNSLKPEDTAVYFCNAVRQGHILDYWGQGTQVTVSS” the “polyreactivity (PSR sort gate)” value was “low polyreactivity”. For “QVQLVESGGGLVQAGGSLRLSCAASGFTFRVNAMGWYRQAPGKERELVAAISSGGSTNYADSVKGRFTISRDNAKYTVYLQMNSLKPEDTAVYYCAKRFKYIYYWGQGTQVTVSS”, the “polyreactivity (PSR sort gate)” value was “high polyreactivity”. With “QVQLVETGGGLVQAGGSLRLSCAASGSIFYYNTMGWYRQAPGKERELVAAISRSGTSTFYADSVKGRFTISRHNAKNTVYLQMNSLKPEDTAVYYCNAESLGWYRLYTVDYWGQGTQVTVSS” the “polyreactivity (PSR sort gate)” value was “low polyreactivity”. For “QVQLVESGGGLVQAGGSLRLSCAASGSTFHRYAMGWYRQAPGKERELVAAITSSGDITYYADSVKGRFTISRDNAKNTVYLQMNSLKPEDTAVYYCNADGFYSWLYDYWGQGTQVTVSS”, the “polyreactivity (PSR sort gate)” value was “low polyreactivity”. In the case of “QVQLVESGGGLVQAGGSLRLSCAASGSTFHNYAMGWYRQAPGKERELVAGISVRGGGTYYADSVKGRFTISRDNAKNTVYLQMNSLKPEDTAVYYCAPDFYWFWTYGTLWYGYEYWGQGTQVTVSS”, the “polyreactivity (PSR sort gate)” value is reported as “high polyreactivity”. For “QVQLVESGGGLVQAGGSLRLSCAASGSTIYWYAMGWYRQAPGKERELVAAISLSGGSTYYADSVKGRFTFSRDNAKNTVYLQMNSLKPEDTAVYYCAARTSYYVYRHPSGRYDYWGQGTQVTVSS”, the “polyreactivity (PSR sort gate)” value was “low polyreactivity”. With “QVQLVESGGGLVQAGGSLRLSCAASGSIFDYYAMGWYRQAPGKERELVAAISRSGTTNYADSVKGRFTISRDNAKNTVYFQMNSLKPEDTAVYYCNARTRGYRYTSALYYWGQGTQVTVSS” the “polyreactivity (PSR sort gate)” value was “high polyreactivity”.
